Among the targets are FcγRIIIa F158 (UniProt P08637); FcγRIIIa V158; FcγRIIb/c (UniProt P31994); FcγRIIa R131.
Assay in all cases: SPR; Fcγ receptors immobilised, trastuzumab glycan variants as analyte; Biacore T200; relative binding (%) normalised with trastuzumab starting material; n = 3; procedure in ref. 54
For orientation: SPR reads the build-up and loss of mass on a sensor chip optically.

Sequence of UniProt P31994 (P31994 43-217): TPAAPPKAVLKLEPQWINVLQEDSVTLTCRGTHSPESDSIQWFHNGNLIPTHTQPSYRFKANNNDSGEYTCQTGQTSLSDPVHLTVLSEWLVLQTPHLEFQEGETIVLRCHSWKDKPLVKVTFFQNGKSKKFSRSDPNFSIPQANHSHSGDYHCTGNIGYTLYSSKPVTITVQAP

Consider “Trastuzumab α-2,6-sialylated variant G2S2F ST6 (antibody)”, for which the relative binding (% of trastuzumab starting material) is 150% with FcγRIIIa F158, 121% in the experiment with FcγRIIIa V158, 162% with FcγRIIb/c and 130% in the experiment with FcγRIIa R131.
In the experiment with FcγRIIIa F158, “Trastuzumab α-2,3-sialylated variant G2S2F ST3 (antibody)” yielded a relative binding (% of trastuzumab starting material) of 62%.
With “Trastuzumab hyper-galactosylated variant G2F (antibody)”, the figures for the relative binding (% of trastuzumab starting material) with FcγRIIIa F158 and in the experiment with FcγRIIIa V158 were 124% and 120%, respectively.

These data come from paper PMC6963987.
